Test results taken from patent US20180186853A1 (HANMI PHARM, published 2018).
Positions of bridges follow the written chain, without caps; N, C: chain ends. Non-standard residues stand in square brackets, D forms with d. No end group written: not given here. Aib = CC(C)(N)C(=O)O

Target: human glucagon receptor (human, UniProt P47871 26-477)
Assay: cell-based or functional assay

Sequence of human glucagon receptor (P47871 26-477): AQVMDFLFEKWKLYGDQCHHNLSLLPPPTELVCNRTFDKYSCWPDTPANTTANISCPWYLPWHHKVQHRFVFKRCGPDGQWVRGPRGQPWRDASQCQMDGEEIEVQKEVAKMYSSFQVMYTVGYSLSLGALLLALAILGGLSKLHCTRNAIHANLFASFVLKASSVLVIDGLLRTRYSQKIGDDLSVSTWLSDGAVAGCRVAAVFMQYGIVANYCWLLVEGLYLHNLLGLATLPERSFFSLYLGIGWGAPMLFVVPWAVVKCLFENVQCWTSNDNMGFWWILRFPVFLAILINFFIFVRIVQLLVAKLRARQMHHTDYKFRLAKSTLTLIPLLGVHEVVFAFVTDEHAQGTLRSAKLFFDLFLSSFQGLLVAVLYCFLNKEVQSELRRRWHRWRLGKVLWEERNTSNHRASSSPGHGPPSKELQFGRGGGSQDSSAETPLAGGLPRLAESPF

Binder	In vitro Activity (Relative Activity of SEQ ID NO: 1, %), from cAMP EC50 [%]
W[Aib]QGTFVSDYSKYLDECRAKDFVQWLMNT (bridge 16-20; also: ring between positions 16 and 20, kind not given here) [glucagon derivative of SEQ ID NO: 28]	< 0.1
Y[Aib]QGTFTSDYSKYLDEKCAKEFVQWLMNT (not fully specified (bridges)) [glucagon derivative of SEQ ID NO: 11]	4.6
Y[Aib]QGTFTSDYSKYCDERRAKEFVQWLMNT (bridge 16-20; also: ring between positions 16 and 20, kind not given here) [glucagon derivative of SEQ ID NO: 35]	17.7
HSQGTFTSDYSKYLDSCDAQDFVQWLMNT [glucagon derivative of SEQ ID NO: 4]	< 0.1
Y[Aib]QGTFCSDYSKYLDSRRAQDFVQWLMNT [glucagon derivative of SEQ ID NO: 42]	37.9
W[Aib]QGTFTSDYSKCLDERRAKDFVQWLMNT (bridge 16-20; also: ring between positions 16 and 20, kind not given here) [glucagon derivative of SEQ ID NO: 30]	0.3
W[Aib]QGTFTSDYSKYLDECRAKDFVQWLMNT (bridge 16-20; also: ring between positions 16 and 20, kind not given here) [glucagon derivative of SEQ ID NO: 26]	1
Y[Aib]QGTFCSDYSKYLDERRAKEFVQWLMNT (bridge 16-20; also: ring between positions 16 and 20, kind not given here) [glucagon derivative of SEQ ID NO: 38]	167
W[Aib]QGTFTSDYSKYCDERRAKEFVQWLMNT (bridge 16-20; also: ring between positions 16 and 20, kind not given here) [glucagon derivative of SEQ ID NO: 34]	0.2
SQGTFTSDYSKYLDECRAKEFVQWLMNT (lactam 15-19) [glucagon derivative of SEQ ID NO: 32]	0.7
Y[Aib]QGTFTSDYSKYLDEKRAKCFVQWLMNT (bridge 16-20; also: ring between positions 16 and 20, kind not given here) [glucagon derivative of SEQ ID NO: 25]	46.9
Y[Aib]QGTFTSDYSKYLDSCDAQDFVVWLINT [glucagon derivative of SEQ ID NO: 9]	< 0.1
Y[Aib]QGTFTSDYSKYLDECRAKEFVQWLMNT (bridge 16-20; also: ring between positions 16 and 20, kind not given here) [glucagon derivative of SEQ ID NO: 20]	300
HSQGTFTSDYSKYLDCERAQDFVQWLMNT [glucagon derivative of SEQ ID NO: 3]	6.1
Y[Aib]QGTFTSDYSKYLDERRAKEFVQWLMNTC (bridge 16-20; also: ring between positions 16 and 20, kind not given here) [glucagon derivative of SEQ ID NO: 37]	226
Y[Aib]QGTFTSDYSKYLDCVRAQDFVQWLMRT [glucagon derivative of SEQ ID NO: 17]	23.2
HSQGTFTSDYSKYLDCDRAQDFVQWLMNT [glucagon derivative of SEQ ID NO: 2]	0.6
Y[Aib]QGTFTSDYSKYLDSRRACDFRLWLMNT [glucagon derivative of SEQ ID NO: 18]	< 0.1
Y[Aib]QGTFTSDCSKYLDSRRAQDFVQWLMNT [glucagon derivative of SEQ ID NO: 43]	1.6
Y[Aib]QGTFTSDYSKCLDEKRAKEFVQWLMNT (bridge 16-20; also: ring between positions 16 and 20, kind not given here) [glucagon derivative of SEQ ID NO: 24]	58

Binder	In vitro Activity (Relative Activity of SEQ ID NO: 1, %), from cAMP EC50 [%]
YXQGTFTSDYSKYLDSRRAQDFVQWLMNTC (X at position 2 = aminoisobutyric acid (Aib)) [glucagon derivative of SEQ ID NO: 44]	75.4
Y[Aib]QGTFTSDCSKYLDERRAKEFVQWLMNT (bridge 16-20; also: ring between positions 16 and 20, kind not given here) [glucagon derivative of SEQ ID NO: 36]	9.9
Y[Aib]QGTFCSDYSKYLDERRAKDFVQWLMNT (bridge 16-20; also: ring between positions 16 and 20, kind not given here) [glucagon derivative of SEQ ID NO: 41]	45.2
Y[Aib]QGTFTSDYSKCLDERRAKDFVQWLMNT (bridge 16-20; also: ring between positions 16 and 20, kind not given here) [glucagon derivative of SEQ ID NO: 29]	61.3
Y[Aib]QGTFTSDYSKYLDEKCAKEFVQWLMNT (bridge 16-20; also: ring between positions 16 and 20, kind not given here) [glucagon derivative of SEQ ID NO: 21]	57.8
YXQGTFTSDYSKYLDSRRAQDFVQWLMNT (X at position 2 = aminoisobutyric acid (Aib)) [glucagon derivative of SEQ ID NO: 33]	108
Y[Aib]QGTFTSDYSKYLCEKRAKEFVQWLMNT (bridge 16-20; also: ring between positions 16 and 20, kind not given here) [glucagon derivative of SEQ ID NO: 19]	12.1
Y[Aib]QGTFTSDYSKYLDEKRAKEFVQWLMNTC (bridge 16-20; also: ring between positions 16 and 20, kind not given here) [glucagon derivative of SEQ ID NO: 12]	56.3
Y[Aib]QGTFTSDYSKYLDCKRAKEFVQWLMNT (bridge 17-21; also: ring between positions 17 and 21, kind not given here) [glucagon derivative of SEQ ID NO: 31]	6.3
HSQGTFTSDYSKYLDSCEAQDFVQWLMNT [glucagon derivative of SEQ ID NO: 5]	0.3
Y[Aib]QGTFTSDYSKYLDSCDADDFVVWLINT [glucagon derivative of SEQ ID NO: 10]	< 0.1
Y[Aib]QGTFTSDYSKYLDEKRCKEFVQWLMNT (bridge 16-20; also: ring between positions 16 and 20, kind not given here) [glucagon derivative of SEQ ID NO: 22]	148
Y[Aib]QGTFTSDYSCYLDSRRAQDFVQWLMNT [glucagon derivative of SEQ ID NO: 13]	5.2
Y[Aib]QGTFTSDYSKYLDCKRAKEFVQWLMNT (not fully specified (bridges)) [glucagon derivative of SEQ ID NO: 14]	18.1
Y[Aib]QGTFTSDYSKYCDEKRAKEFVQWLMNT (bridge 16-20; also: ring between positions 16 and 20, kind not given here) [glucagon derivative of SEQ ID NO: 23]	76.8
Y[Aib]QGTFTSDYSKYLDCRRAQVFVQWLMRT [glucagon derivative of SEQ ID NO: 16]	4.2
Y[Aib]QGTFVSDCSKYLDERRAKDFVQWLMNT (bridge 16-20; also: ring between positions 16 and 20, kind not given here) [glucagon derivative of SEQ ID NO: 39]	3.7
Y[Aib]QGTFTSDYSKYLCEKRAQDFVVWLMNT [glucagon derivative of SEQ ID NO: 15]	1.1
Y[Aib]QGTFVSDYSKYLDERRAKDFVQWLMNTC (bridge 16-20; also: ring between positions 16 and 20, kind not given here) [glucagon derivative of SEQ ID NO: 40]	40.8
Y[Aib]QGTFVSDYSKYLDECRAKDFVQWLMNT (bridge 16-20; also: ring between positions 16 and 20, kind not given here) [glucagon derivative of SEQ ID NO: 27]	93.6
